Assays:
FLAG-USP33 = test: IP-MS of FLAG-USP33 and variants vs empty vector; type: cell-based, human; conditions: IP-MS, FLAG-USP33 UBP mutant vs EV, comparison USP33_E86K_D90R/EV, Limma
Method: For transfection, 1x10^6 HEK293 cells were seeded in 10 cm dishes with DMEM, 10% FBS, 1% L-G (without antibiotic) medium, incubated at 37 °C, with 5 % CO2 for 24 h. Cells were transfected with a transfection mix containing […] of Opti-MEM (Thermo Fisher Scientific), 20 μL of PEI stock (1 mg/mL) and […] of the desired cDNA. For co-transfection, 2.5 μg of DNA of each plasmid was used. The mix was vortexed for 15 s and incubated at room temperature for 15–20 min. The transfection mix was added to the dish and gently mixed. Plates were incubated at 37 °C for 36–48 h before harvesting. For USP33 constructs, 5 μM Bortezomib (proteasome inhibitor) was added 4 hours before harvesting the cells.
FLAG fusion proteins were immunoprecipitated from HEK293 cells transfected with plasmids encoding the protein of interest using the anti-FLAG M2 affinity gel from Sigma-Aldrich. Cell pellets were lysed with 100–200 μL/per dish lysis buffer (Pierce RIPA buffer, 1X protease inhibitor (Roche), 50 unit/μL of Benzonase Nuclease) rotating at 4 °C for 30–45 min. […] The cell lysate was clarified by centrifugation at 17,000 x g, at 4 °C for 12 min, and the supernatant was transferred to a clean, pre-chilled low-binding Eppendorf tube. […] The IP samples were centrifuged at 6500 x g at 4 °C for 30 s. The supernatant containing the unbound proteins was transferred to a clean tube. The resin was washed three times with 500 μL of TBS, centrifuged at 6500 x g at 4 °C for 30 s. The bound FLAG fusion protein was eluted with 100 μL of 150 ng/μL 3X FLAG peptide (Sigma) in TBS and incubated in the cold room for 1 h or overnight. The tube was centrifuged at 6500 x g at 4 °C for 30 s; the eluted proteins were transferred to a clean tube. The eluted proteins were prepared for analysis by western blot or Mass Spectrometry.
Immunoprecipitation (IP) was carried out as described above; four technical replicates of each IP condition were performed, and the empty vector was used as a negative control. The eluted protein was processed following the Strap-micro protocol (Protifi). The IP elution containing 1–100 μg protein was 1:1 mixed with 2X lysis buffer (10% SDS, 100 mM TEAB pH 8.5). […] Samples were vortexed, mixed with 165 μL of 100 mM TEAB in 90% methanol, and passed through an S-Trap micro column at 4000 g for 30 s to trap the proteins. The column was washed with 150 μL of 100 mM TEAB in 90% methanol (at 4,000 x g for 30 seconds) three times. The S-Trap column was centrifuged again and transferred to a clean 2 mL tube for digestion with 20 μL of digestion buffer (1 μg trypsin per 10 μg sample in 50 mM TEAB), at 37 °C overnight in a thermomixer without shaking. The digested peptides were eluted with […] of 50 mM TEAB in water, […] of 0.2 % formic acid in water, and […] of 50 % acetonitrile in water, centrifuging at 4000 x g for 1 min each time. The three elutions were pooled in a low-binding tube, placed on dry ice until frozen, dried in a SpeedVac vacuum (Thermo Scientific), and proceeded with the LCMS analysis.
Eluted peptides were resuspended in water supplemented with 0.015% dodecyl maltoside and 0.1% formic acid and were injected on a Vanquish Neo UHPLC System operating in trap and elute mode coupled to an Orbitrap Astral Mass Spectrometer (Thermo Fisher Scientific). […] Eluted peptides were analyzed using data-independent acquisition mode on the mass spectrometer.
Peptides were searched against the Uniprot Swissprot Human database (released on 02/01/2023) supplemented with the USP20 and USP33 mutants using DiaNN (v1.9.0)[62] operating in library-free mode. Data filtering and statistical analysis were carried out in Python (v3.9.0) using the packages pandas, numpy, sklearn, scipy, rpy2, Plotnine, and Plotly and R (v4.4.3) using the package limma.
Protein groups identified with a single peptide or quantified in fewer than three replicates in at least 1 condition were filtered out. […]

FLAG-USP20 = test: IP-MS of FLAG-USP20 and variants vs empty vector; type: cell-based, human

B1: BCLAF3 (protein, UniProt A2AJT9 1-711, looked up)
BCLAF1 and THRAP3 family …: MARSRSRSPRWKHRSLSPVPRNAEHYKQRHSHGHYGCEYRKDPKRPVAWRMDSEKHGQSKPRIPSRGNIYYQSYEHRSPSPNIRNSLENVYMYKPHRGYSPGRGDSNRRAQYMPKYSEGIPYKEHERNSYPQKVQGGHSPDDHRVRGSGKGGKPPQRSIADSFRFEGKWHEDELRHQRIQEEKYSQSTRRGSEDFETRSSFQKRYPEDRDFRKYGHTSKRPKDVERYESREPARNPKWKPEHSLPPYQEDTDQWNLGPQTYRHAEREHPETSSATKVSYDYRHKRPKLLDGDQDFSDGRTQKYCKEEDRKYSFQKGPLNRELDCFNTGRGRETQDGQVKEPFKPSKKDSIACTYSNKNDVDLRSSNDKWKEKIKKEGDCRKESNSSSNQLDKSQKLPDVKPSPINLRKKSLTVKVDVKKTVDTFRVASSYSTERQMSHDLVAVGRKSENFHPVFEHLDSTQNTENKPTGEFAQEIITIIHQVKANYFPSPGITLHERFSTMQDIHKADVNEIPLNSDPEIHRRIDMSLAELQSKQAVIYESEQTLIKIIDPNDLRHDIERRRKERLQNEDEHIFHIASAAERDDQNSSFSKVKNVHTDGFQKPTHFIKSNFRKCIEKPYMNYTTQRKDIITHKPFEVEGNHRNTRVRPFKSNFRGGRCQPNYKSGLVQKSLYIQAKYQRLRFTGPRGFITHKFRERLMRKKKEYTDVATGI
- log2_FC (FLAG-USP33): 4.934
- log2_FC (FLAG-USP20; IP-MS, FLAG-USP20-ΔUBP vs EV, comparison bh_2 Sample_Limma_ImpMedInt_USP20_UBP_domain/EV): 4.725
- log2_FC (FLAG-USP20; IP-MS, FLAG-USP20 vs EV, comparison USP20_wt/EV, Limma): 4.955
- log2_FC (FLAG-USP20; Table S7b USP20 MS_and_motif, bait USP20): 4.955

Source: paper PMC13376213, “Systematic discovery of motif-based interactions of the auxiliary domains of USP family deubiquitinases” (Nature Communications, 2026)
